For this assay, the target named is Flag-DHX9 recombinant protein (UniProt Q08211 1-1270). Description: pull-down.
Chain of Flag-DHX9 recombinant protein (Q08211 whole entry): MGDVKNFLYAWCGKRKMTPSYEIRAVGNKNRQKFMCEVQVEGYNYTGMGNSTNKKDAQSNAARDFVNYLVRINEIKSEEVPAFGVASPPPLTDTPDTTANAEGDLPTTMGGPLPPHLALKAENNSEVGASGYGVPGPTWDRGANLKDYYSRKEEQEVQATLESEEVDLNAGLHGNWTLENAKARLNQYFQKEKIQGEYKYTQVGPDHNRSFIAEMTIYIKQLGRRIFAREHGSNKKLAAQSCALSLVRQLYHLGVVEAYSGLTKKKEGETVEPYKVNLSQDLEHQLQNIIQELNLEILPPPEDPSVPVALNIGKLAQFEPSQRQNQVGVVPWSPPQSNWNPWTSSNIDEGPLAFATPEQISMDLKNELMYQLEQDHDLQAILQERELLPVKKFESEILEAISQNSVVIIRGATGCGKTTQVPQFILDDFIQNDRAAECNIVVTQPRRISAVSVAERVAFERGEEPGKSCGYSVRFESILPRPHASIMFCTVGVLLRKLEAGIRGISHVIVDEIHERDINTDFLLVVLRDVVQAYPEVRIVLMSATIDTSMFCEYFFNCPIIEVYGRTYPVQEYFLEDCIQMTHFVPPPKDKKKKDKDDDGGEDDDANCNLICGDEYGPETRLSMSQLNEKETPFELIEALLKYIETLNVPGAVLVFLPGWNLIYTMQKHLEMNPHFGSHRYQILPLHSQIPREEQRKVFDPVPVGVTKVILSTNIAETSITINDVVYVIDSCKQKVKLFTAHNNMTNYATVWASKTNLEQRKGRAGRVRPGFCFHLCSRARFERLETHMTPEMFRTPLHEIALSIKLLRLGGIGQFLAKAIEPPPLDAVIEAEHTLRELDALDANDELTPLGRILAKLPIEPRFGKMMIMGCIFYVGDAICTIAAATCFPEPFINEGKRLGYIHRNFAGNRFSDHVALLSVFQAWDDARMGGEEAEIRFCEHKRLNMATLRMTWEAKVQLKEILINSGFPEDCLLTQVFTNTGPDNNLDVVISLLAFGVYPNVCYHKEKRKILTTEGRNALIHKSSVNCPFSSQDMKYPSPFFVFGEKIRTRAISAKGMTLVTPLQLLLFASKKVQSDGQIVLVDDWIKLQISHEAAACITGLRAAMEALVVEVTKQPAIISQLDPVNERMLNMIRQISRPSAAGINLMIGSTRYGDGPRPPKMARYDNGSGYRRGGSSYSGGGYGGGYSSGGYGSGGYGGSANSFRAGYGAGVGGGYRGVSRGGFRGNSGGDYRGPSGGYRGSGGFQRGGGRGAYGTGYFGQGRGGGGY

B1: GST-TDRD3 (natural protein)
chain: MAQVAGAALSQAGWYLSDEGIEACTSSPDKVNVNDIILIALNTDLRTIGKKFLPSDINSGKVEKLEGPCVLQIQKIRNVAAPKDNEESQAAPRMLRLQMTDGHISCTAVEFSYMSKISLNTPPGTKVKLSGIVDIKNGFLLLNDSNTTVLGGEVEHLIEKWELQRSLSKHNRSNIGTEGGPPPFVPFGQKCVSHVQVDSRELDRRKTLQVTMPVKPTNDNDEFEKQRTAAIAEVAKSKETKTFGGGGGGARSNLNMNAAGNRNREVLQKEKSTKSEGKHEGVYRELVDEKALKHITEMGFSKEASRQALMDNGNNLEAALNVLLTSNKQKPVMGPPLRGRGKGRGRIRSEDEEDLGNARPSAPSTLFDFLESKMGTLNVEEPKSQPQQLHQGQYRSSNTEQNGVKDNNHLRHPPRNDTRQPRNEKPPRFQRDSQNSKSVLEGSGLPRNRGSERPSTSSVSEVWAEDRIKCDRPYSRYDRTKDTSYPLGSQHSDGAFKKRDNSMQSRSGKGPSFAEAKENPLPQGSVDYNNQKRGKRESQTSIPDYFYDRKSQTINNEAFSGIKIEKHFNVNTDYQNPVRSNSFIGVPNGEVEMPLKGRRIGPIKPAGPVTAVPCDDKIFYNSGPKRRSGPIKPEKILESSIPMEYAKMWKPGDECFALYWEDNKFYRAEVEALHSSGMTAVVKFIDYGNYEEVLLSNIKPIQTEAWEEEGTYDQTLEFRRGGDGQPRRSTRPTQQFYQPPRARN
As for B1, the binding result is “binds”.

For the origin of these results see paper PMC8421139 (Nucleic Acids Research, 2021).
